The text below walks through data of patent US20090118184A1 (UNIVERSITY OF ROCHESTER, published 2009).

What all share (assay): cell-based or functional assay
Assay [1] addresses T1, factor VIIIa A1/A3C1C2 dimer, E113A and E1984V (human, UniProt P00451 20-391; P00451 1709-2351).
T1 chain 1: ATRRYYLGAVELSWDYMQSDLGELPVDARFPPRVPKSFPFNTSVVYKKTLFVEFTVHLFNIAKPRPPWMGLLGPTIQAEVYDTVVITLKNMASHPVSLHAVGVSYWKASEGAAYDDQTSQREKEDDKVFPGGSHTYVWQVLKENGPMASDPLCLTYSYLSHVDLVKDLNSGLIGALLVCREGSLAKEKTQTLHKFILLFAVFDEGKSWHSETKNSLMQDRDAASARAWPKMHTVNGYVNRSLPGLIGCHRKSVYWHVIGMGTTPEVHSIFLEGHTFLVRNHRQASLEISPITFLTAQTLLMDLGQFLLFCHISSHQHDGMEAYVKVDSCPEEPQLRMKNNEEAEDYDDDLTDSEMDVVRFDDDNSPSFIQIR
T1 chain 2: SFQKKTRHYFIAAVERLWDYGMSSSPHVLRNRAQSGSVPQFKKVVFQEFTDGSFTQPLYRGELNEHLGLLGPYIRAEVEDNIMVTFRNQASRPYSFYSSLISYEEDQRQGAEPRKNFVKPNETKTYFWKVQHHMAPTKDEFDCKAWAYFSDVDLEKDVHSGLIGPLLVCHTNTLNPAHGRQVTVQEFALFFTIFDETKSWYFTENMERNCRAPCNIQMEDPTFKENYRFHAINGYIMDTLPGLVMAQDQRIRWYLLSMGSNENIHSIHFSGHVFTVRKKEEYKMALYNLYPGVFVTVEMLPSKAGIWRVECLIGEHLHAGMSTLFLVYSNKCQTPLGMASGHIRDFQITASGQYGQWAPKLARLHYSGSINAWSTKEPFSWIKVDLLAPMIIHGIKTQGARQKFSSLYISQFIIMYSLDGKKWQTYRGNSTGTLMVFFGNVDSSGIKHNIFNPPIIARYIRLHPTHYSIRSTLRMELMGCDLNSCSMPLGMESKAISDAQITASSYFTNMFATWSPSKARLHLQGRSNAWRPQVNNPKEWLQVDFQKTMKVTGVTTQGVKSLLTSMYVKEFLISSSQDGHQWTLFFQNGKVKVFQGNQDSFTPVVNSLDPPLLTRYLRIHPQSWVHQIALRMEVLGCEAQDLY

Assay [2] has as its target T2, factor VIIIa A1/A3C1C2 dimer, wild type (human, UniProt P00451 20-391; P00451 1709-2351).
T2 sequence 1: T1 chain 1 with A113E
T2 sequence 2: T1 chain 2 with V295E

In assay [3] the target is T3, factor VIIIa A1/A3C1C2 dimer, Glu1984Ala (human, UniProt P00451 20-391; P00451 1709-2351).
T3 sequence 1: T1 chain 1 with A113E
T3 sequence 2: T1 chain 2 with V295A

Assay [4] concerns the target T4, factor VIIIa A1/A3C1C2 dimer, Glu1984Val (human, UniProt P00451 20-391; P00451 1709-2351).
T4 sequence 1: T1 chain 1 with A113E
T4 sequence 2: T1 chain 2

Positions count from the first letter of the chain named.

B1: factor VIIIa A2 subunit, wild type (other)
chain: SVAKKHPKTWVHYIAAEEEDWDYAPLVLAPDDRSYKSQYLNNGPQRIGRKYKKVRFMAYTDETFKTREAIQHESGILGPLLYGEVGDTLLIIFKNQASRPYNIYPHGITDVRPLYSRRLPKGVKHLKDFPILPGEIFKYKWTVTVEDGPTKSDPRCLTRYYSSFVNMERDLASGLIGPLLICYKESVDQRGNQIMSDKRNVILFSVFDENRSWYLTENIQRFLPNPAGVQLEDPEFQASNIMHSINGYVFDSLQLSVCLHEVAYWYILSIGAQTDFLSVFFSGYTFKHKMVYEDTLTLFPFSGETVFMSMENPGLWILGCHNSDFRNRGMTALLKVSSCDKNTGDYYEDSYEDISAYLLSKNNAIEPR
For the molecule B1, the “Decay rate relative to wild type, Factor VIIIa (1.5 nM, factor IXa absent)” value in assay [1] was 0.4 relative to wild type; in assay [2] it was 1 relative to wild type; in assay [3], 0.41 relative to wild type; in assay [4] it was 0.34 relative to wild type. Moreover, the “Decay rate, Factor VIIIa (1.5 nM factor VIIIa, factor IXa absent)” value in assay [1] worked out at 0.0567 min⁻¹; in assay [2], 0.14 min⁻¹; in assay [3], 0.0574 min⁻¹; in assay [4] it was 0.0471 min⁻¹.
